From US20240376151A1, “STAPLED PEPTIDES AND METHODS THEREOF” (FOG PHARMACEUTICALS, INC., priority 2022, published 2024)
Numbered stars: 1 amine (or outer) side, 2 acyl side, 3 side chain; on linkers, the order of the positions; unused ones are H or OH. Bridge positions count the residues as written; N and C are the ends. Ends that are not written are not given here. Phenylene(1,4-NHCOCH2)2 = O=C(C[*:1])Nc1ccc(NC(=O)C[*:2])cc1

Biological target: T1, CHIP (Homo sapiens, UniProt Q9UNE7)
T1 construct: N-term truncated CHIP (also known as STUB1, Uniprot ID: Q9UNE7, residues 23-303); made in house; host or cells: E. coli BL21 CodonPlus
T1 sequence (Q9UNE7 23-303): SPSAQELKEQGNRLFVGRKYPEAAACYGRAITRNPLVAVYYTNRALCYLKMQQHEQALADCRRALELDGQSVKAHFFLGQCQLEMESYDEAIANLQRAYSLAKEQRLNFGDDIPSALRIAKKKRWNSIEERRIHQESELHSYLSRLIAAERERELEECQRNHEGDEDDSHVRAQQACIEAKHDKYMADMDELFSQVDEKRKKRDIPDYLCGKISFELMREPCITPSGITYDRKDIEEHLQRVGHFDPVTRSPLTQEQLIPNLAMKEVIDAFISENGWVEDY
Assay: Naive Library Presenter Screening (phage, NGS), CHIP
Assay type: binding
Conditions: for interaction data, BLANK: Blank = Media only
Protocol: To conduct phage library screening, previously described procedures were utilized in accordance with the present disclosure.
Next-generation sequencing was performed as described in accordance with the present disclosure.
Hit ID and Clustering is performed according to a described procedure in accordance with the present disclosure.

[1] = CHIP clusters (C83, C84), first column
[2] = CHIP clusters (C83, C84), second column
[3] = CHIP clusters (C83, C84), target concentration 10 nM
[4] = CHIP clusters (C83, C84), target concentration 30 nM
[5] = CHIP clusters (C83, C84), target concentration 100 nM
[6] = CHIP clusters (C83, C84), target concentration 300 nM
[7] = CHIP clusters (C83, C84), target concentration 1000 nM, first column
[8] = CHIP clusters (C83, C84), target concentration 1000 nM, second column
[9] = CHIP target concentration 10 nM
[10] = CHIP target concentration 30 nM
[11] = CHIP target concentration 100 nM
[12] = CHIP target concentration 300 nM
[13] = CHIP target concentration 1000 nM, first column
[14] = CHIP target concentration 1000 nM, second column

| Sequence | interaction data, BLANK [1] | interaction data, BLANK [2] | interaction data at Target Concentration 10 [3] | interaction data at Target Concentration 30 [4] | interaction data at Target Concentration 100 [5] | interaction data at Target Concentration 300 [6] | interaction data at Target Concentration 1000 [7] | interaction data at Target Concentration 1000 [8] | interaction data at Target Concentration 10 [9] | interaction data at Target Concentration 30 [10] | interaction data at Target Concentration 100 [11] | interaction data at Target Concentration 300 [12] | interaction data at Target Concentration 1000 [13] | interaction data at Target Concentration 1000 [14] |
| --- | --- | --- | --- | --- | --- | --- | --- | --- | --- | --- | --- | --- | --- | --- |
| DPASQWCQRAASICWID (DPASQWCQRAASICWID-NH2; linker 7-14 via Phenylene(1,4-NHCOCH2)2 (inferred)) | 0 | 0 | 0 | 0 | 0 | 15 | 18 | 8 |  |  |  |  |  |  |
| DPAFWVCQYAAAMCQDV (linker 7-14 via Phenylene(1,4-NHCOCH2)2 (inferred)) | 1 | 0 | 8 | 3 | 160 | 86 | 331 | 323 |  |  |  |  |  |  |
| PCWNAWMVCSV (linker 2-9 via Phenylene(1,4-NHCOCH2)2 (inferred)) |  |  |  |  |  |  |  |  | 2 | 44 | 334 | 474 | 690 | 691 |
| DPAFEYCQWAAATCQMD (linker 7-14 via Phenylene(1,4-NHCOCH2)2 (inferred)) | 0 | 0 | 0 | 12 | 0 | 43 | 46 | 90 |  |  |  |  |  |  |
| DPAVHNCSQAASICDVD (linker 7-14 via Phenylene(1,4-NHCOCH2)2 (inferred); not fully specified (C-terminus)) | 0 | 0 | 0 | 0 | 0 | 22 | 9 | 39 |  |  |  |  |  |  |
| DPALWNCQYAAVMCTQL (linker 7-14 via Phenylene(1,4-NHCOCH2)2 (inferred); not fully specified (C-terminus)) | 0 | 0 | 0 | 0 | 0 | 14 | 34 | 75 |  |  |  |  |  |  |
| DPAFEQCQFAAAMCLHH (linker 7-14 via Phenylene(1,4-NHCOCH2)2 (inferred)) | 0 | 0 | 0 | 6 | 1 | 17 | 42 | 21 |  |  |  |  |  |  |
| DPAFVRCQFAAASCHTI (linker 7-14 via Phenylene(1,4-NHCOCH2)2 (inferred)) | 0 | 0 | 0 | 0 | 0 | 22 | 27 | 19 |  |  |  |  |  |  |
| DPAFWSCQFAAATCSHL (linker 7-14 via Phenylene(1,4-NHCOCH2)2 (inferred)) | 0 | 0 | 0 | 0 | 4 | 6 | 11 | 8 |  |  |  |  |  |  |
| ICYSAWLECE (linker 2-9 via Phenylene(1,4-NHCOCH2)2 (inferred)) |  |  |  |  |  |  |  |  | 1 | 3 | 13 | 25 | 22 | 28 |
| ICWAAWVSCS (linker 2-9 via Phenylene(1,4-NHCOCH2)2 (inferred)) |  |  |  |  |  |  |  |  | 0 | 0 | 0 | 25 | 42 | 17 |
| DPAYDVCHFAAHICWID (linker 7-14 via Phenylene(1,4-NHCOCH2)2 (inferred)) | 0 | 0 | 0 | 0 | 22 | 19 | 20 | 62 |  |  |  |  |  |  |

Second part, the sequence after the results:

| interaction data, BLANK [1] | interaction data, BLANK [2] | interaction data at Target Concentration 10 [3] | interaction data at Target Concentration 30 [4] | interaction data at Target Concentration 100 [5] | interaction data at Target Concentration 300 [6] | interaction data at Target Concentration 1000 [7] | interaction data at Target Concentration 1000 [8] | interaction data at Target Concentration 10 [9] | interaction data at Target Concentration 30 [10] | interaction data at Target Concentration 100 [11] | interaction data at Target Concentration 300 [12] | interaction data at Target Concentration 1000 [13] | interaction data at Target Concentration 1000 [14] | Sequence |
| --- | --- | --- | --- | --- | --- | --- | --- | --- | --- | --- | --- | --- | --- | --- |
| 0 | 0 | 0 | 0 | 3 | 14 | 26 | 10 |  |  |  |  |  |  | DPALEECTQAAHICMVD (linker 7-14 via Phenylene(1,4-NHCOCH2)2 (inferred); not fully specified (C-terminus)) |
|  |  |  |  |  |  |  |  | 1 | 2 | 10 | 21 | 19 | 23 | ICYNAWVECE (linker 2-9 via Phenylene(1,4-NHCOCH2)2 (inferred)) |
| 1 | 0 | 2 | 3 | 210 | 321 | 597 | 726 |  |  |  |  |  |  | DPAFWRCQFAAATCEHT (linker 7-14 via Phenylene(1,4-NHCOCH2)2 (inferred)) |
|  |  |  |  |  |  |  |  | 0 | 0 | 11 | 105 | 155 | 58 | PCWNAWLYCSN (linker 2-9 via Phenylene(1,4-NHCOCH2)2 (inferred)) |
| 0 | 0 | 0 | 0 | 4 | 13 | 31 | 76 |  |  |  |  |  |  | DPAFDRCQWAAALCMMN (linker 7-14 via Phenylene(1,4-NHCOCH2)2 (inferred)) |
|  |  |  |  |  |  |  |  | 0 | 1 | 5 | 7 | 11 | 9 | ICYNAWLECA (linker 2-9 via Phenylene(1,4-NHCOCH2)2 (inferred)) |
